US20140296131A1 (Novo Nordisk, published 2014)
Where no end group is shown, it is not given here. [ ]: non-standard residue; d: D form. Aib = CC(C)(N)C(=O)O

B1: [Aib8, Lys20, Glu22, Val25, Arg26, Glu30] GLP-1 (7-33) Amide (peptide)
peptide: H[Aib]EGTFTSDVSSYKEEQAVREFIEWLV-NH2
modifications: N-terminus assumed
SMILES: CC[C@H](C)[C@H](NC(=O)[C@H](Cc1ccccc1)NC(=O)[C@H](CCC(=O)O)NC(=O)[C@H](CCCNC(=N)N)NC(=O)[C@@H](NC(=O)[C@H](C)NC(=O)[C@H](CCC(N)=O)NC(=O)[C@H](CCC(=O)O)NC(=O)[C@H](CCC(=O)O)NC(=O)[C@H](CCCCN)NC(=O)[C@H](Cc1ccc(O)cc1)NC(=O)[C@H](CO)NC(=O)[C@H](CO)NC(=O)[C@@H](NC(=O)[C@H](CC(=O)O)NC(=O)[C@H](CO)NC(=O)[C@@H](NC(=O)[C@H](Cc1ccccc1)NC(=O)[C@@H](NC(=O)CNC(=O)[C@H](CCC(=O)O)NC(=O)C(C)(C)NC(=O)[C@@H](N)Cc1c[nH]cn1)[C@@H](C)O)[C@@H](C)O)C(C)C)C(C)C)C(=O)N[C@@H](CCC(=O)O)C(=O)N[C@@H](Cc1c[nH]c2ccccc12)C(=O)N[C@@H](CC(C)C)C(=O)N[C@H](C(N)=O)C(C)C
B2: truncated natural, human GLP-1(7-33) (peptide)
peptide: HAEGTFTSDVSSYLEGQAAKEFIAWLV
modifications: ends and bridges not checked
notes: also called truncated natural GLP-1; truncated natural GLP-1(7-3)) peptide

Tests used:
[1] = target: isolated N-terminal extracellular domain of the GLP-1 receptor (nGLP-1R) (UniProt P43220); assay: SPA competition: displacement of 125I-Exendin-4(9-39) from nGLP-1R
human GLP-1 receptor [2] = target: T1, human GLP-1 receptor (human, UniProt P43220 24-463); assay: cell-based or functional assay
human GLP-1 receptor [3] = target: T1, human GLP-1 receptor; assay: SPA competition: displacement of 125I-GLP-1 from BHK tk-ts13 membranes with the human GLP-1 receptor
Method: Test compounds/peptides, membranes, SPA-particles and [¹²⁵I] are diluted in assay buffer. 25 ul (micro liter) of test compounds/peptides are added to Optiplate. Buffer is added (50 ul). Add 5-10 ug protein/sample (50 ul) corresponding to 0.1-0.2 mg protein/ml (to be preferably optimised for each membrane preparation). Add SPA-particles (Wheatgerm agglutinin SPA beads) RPNQ 0001) 0.5 mg/well (50 ul). […] The plates are sealed with PlateSealer. Incubate for 120 minutes at 30° C. while shaking. The plates are centrifuged (1500 rpm, 10 min) and counted in Topcounter.

[4] = target: T2, isolated N-terminal extracellular domain of the GLP-1 receptor (nGLP-1R) (UniProt P43220 24-145, limits assumed, biotinylated with BNHS, immobilized on streptavidin-coated SPA beads); assay: SPA competition: displacement of 125I-Exendin-4(9-39) from biotinylated nGLP-1R on streptavidin SPA beads
T2 construct: extracellular domain; also called N-terminal GLP-1 receptor
Method: The nGLP1R in 0.1M NaHCO₃ was biotinylated using 75 μg BNHS (Sigma H1759) to 1 mg protein. The biotinylated nGLP1R was subsequently dialyzed against PBS. All reagents and derivatives were diluted in PBS with 0.05% v/v Tween 20. […] The plates were incubated on a shaker at RT for 3 hours. The SPA particles were spun down by centrifugation for 10 min at 1500 rpm and the plates were counted in a TopCount-NXT (PerkinElmer).

| Molecule | EC50 (potency, stimulation of cAMP formation) (human GLP-1 receptor [2]) | also measured |
| --- | --- | --- |
| liraglutide (peptide) | – | IC50 [1]: 1.5 µM |
| B1 | < 0.0003 µM | – |
| HAEGTFTSDVSSYLEEQAAREFIAWLV-OH [[Glu22, Arg26]GLP-1(7-33)peptide] | < 0.0003 µM | – |
| HAEGTFTSDVSSYLEEQAAREFIAWLV-NH2 [[Glu22, Arg26]GLP-1 (7-33) Amide] | < 0.0003 µM | – |
| HAEGTFTSDVSSYLEEQAVREFIAWLV-NH2 [[Glu22, Val25, Arg26] GLP-1 (7-33)amide] | < 0.0003 µM | – |
| B2 | 0.0113 µM | IC50 (human GLP-1 receptor [3]): 0.241 µM; IC50 [4]: 0.886 µM |
